US20200017563A1 (University of California, published 2020)
Blank lines part the entries; values can stand above or below the molecule they belong to.

Tests used:
[1] = target: Human Tau K18 2×IN (V308I/Y309N) (human) (UniProt P10636); assay: cell-based or functional assay
[2] = target: Human Tau K18 2×VY (I278V/N279Y) (human) (UniProt P10636); assay: cell-based or functional assay
[3] = target: the molecule itself; assay: MicroED structure of fibril nanocrystals; self-association
Experimental: (§1) Nanocrystals of […] (SEQ ID NO: 12) synthetic peptide (purchased from Genscript) were prepared from 30 mg/ml stocks dissolved in water by the addition of 45 mM arachidonic acid to concentrated peptide. Subsequently crystals were grown in batch at 37° C. by the addition of 10 μl of precipitant (32% PEG10K in 100 mM phosphate citrate, pH 4.2) to 5 μl of protein. After 18 hours nanocrystals were resuspended by pipetting, spun down in an epitube and the resulting crystalline pellet was washed three times with water. Nanocrystals of VQIINK (SEQ ID NO: 11) peptide (purchased from Genscript) were grown by vapor diffusion from peptide at 15 mg/ml as a 1:2 drop ratio (protein:reservoir) from 0.29 M LiNO3, 24% (w/v) PEG 3350 at 18° C. and similarly harvested for data collection.
(§2) MicroED data were collected by spotting 2-3 μl of crystals onto TEM grids with carbon film support and plunge frozen in liquid ethane using a Vitrobot Mark IV (FEI). Diffraction images were collected on an FEI Tecnai F20 TEM at 200 kV as a continuous rotation tilt series at a rate of 0.2° per second with 2 second exposures per image. Diffraction data from several crystals were indexed, merged and scaled with XDS and XSCALE.²⁷ Molecular replacement was performed with Phaser²⁸ using a polyalanine search model composed of an ideal β-strand. The structure of VQIINK (SEQ ID NO: 11) was solved using a truncated version of […] […]

[4] = target: Human Tau40 (residues 1-441) with a C-terminal His-tag (human, UniProt P10636 1-757); assay: cell-based or functional assay
Sequence of Human Tau40 (residues 1-441) with a C-terminal His-tag (P10636 other isoform, or with tags, fused parts or gaps): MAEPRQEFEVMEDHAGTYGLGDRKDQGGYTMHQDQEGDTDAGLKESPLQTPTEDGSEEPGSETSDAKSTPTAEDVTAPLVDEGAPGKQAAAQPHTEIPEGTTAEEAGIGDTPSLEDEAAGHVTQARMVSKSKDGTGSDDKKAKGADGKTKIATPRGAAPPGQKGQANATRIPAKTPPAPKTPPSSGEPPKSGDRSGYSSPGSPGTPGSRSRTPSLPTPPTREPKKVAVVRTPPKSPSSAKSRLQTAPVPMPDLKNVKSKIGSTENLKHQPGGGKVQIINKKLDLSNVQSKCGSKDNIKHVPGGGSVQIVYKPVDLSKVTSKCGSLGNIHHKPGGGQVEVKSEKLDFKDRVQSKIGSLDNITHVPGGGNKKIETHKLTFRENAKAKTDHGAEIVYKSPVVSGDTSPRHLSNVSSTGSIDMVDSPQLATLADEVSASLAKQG

[5] = target: the molecule itself; assay: MicroED structure of nanocrystals; self-association
Experimental: as §1, §2

Molecule: Human Tau K18 2×IN (V308I/Y309N) (from UniProt P10636 561-689)
ThT fluorescence, time to half maximum of fibril formation (50 µM, heparin, shaking, 37° C.) [1]: 70 min

B1: KVQIINKKLD synthetic peptide (ten residue Tau segment) (peptide)
peptide: KVQIINKKLD
notes: The peptide corresponds to Tau40 residues 274-283; also called ten residue VQIINK segment
binding result [3]: binds

Molecule: VQIINK [VQIINK peptide (six residue Tau segment)]
binding result [5]: binds

Second part, the molecule after the results:

ThT fluorescence, time to half maximum of fibril formation (50 µM, heparin, shaking, 37° C.) [2]: 220 min
Molecule: Human Tau K18 2×VY (I278V/N279Y) (from UniProt P10636 561-689)

IC50 of inhibition of seeding by pre-formed Tau40 fibers in biosensor cells [4]: 25 µM
Molecule: DVQWINKKRK [WINK inhibitor peptide]

IC50 of inhibition of seeding by pre-formed Tau40 fibers in biosensor cells [4]: 22 µM
Molecule: DVQMINKKRK [MINK inhibitor peptide]

IC50 of inhibition of seeding by pre-formed Tau40 fibers in biosensor cells [4]: 9 µM
Molecule: DVWMINKKRK [W-MINK Phase 2 inhibitor peptide]
